Data reported in publication PMC9253567, “The Role of ZAP and TRIM25 RNA Binding in Restricting Viral Translation” (Frontiers in Cellular and Infection Microbiology, 2022).

B1: FLAG-tagged ZAPL C96A/Y98A (natural protein, human, UniProt Q7Z2W4-1 1-902, looked up)
chain: MADPEVCCFITKILCAHGGRMALDALLQEIALSEPQLCEVLQVAGPDRFVVLETGGEAGITRSVVATTRARVCRRKYCQRPCDNLHLCKLNLLGRANASQSERNLCKYSHEVLSEENFKVLKNHELSGLNKEELAVLLLQSDPFFMPEICKSYKGEGRQQICNQQPPCSRLHICDHFTRGNCRFPNCLRSHNLMDRKVLAIMREHGLNPDVVQNIQDICNSKHMQKNPPGPRAPSSHRRNMAYRARSKSRDRFFQGSQEFLASASASAERSCTPSPDQISHRASLEDAPVDDLTRKFTYLGSQDRARPPSGSSKATDLGGTSQAGTSQRFLENGSQEDLLHGNPGSTYLASNSTSAPNWKSLTSWTNDQGARRKTVFSPTLPAARSSLGSLQTPEAVTTRKGTGLLSSDYRIINGKSGTQDIQPGPLFNNNADGVATDITSTRSLNYKSTSSGHREISSPRIQDAGPASRDVQATGRIADDADPRVALVNDSLSDVTSTTSSRVDDHDSEEICLDHLCKGCPLNGSCSKVHFHLPYRWQMLIGKTWTDFEHMETIEKGYCNPGIHLCSVGSYTINFRVMSCDSFPIRRLSTPSSVTKPANSVFTTKWIWYWKNESGTWIQYGEEKDKRKNSNVDSSYLESLYQSCPRGVVPFQAGSRNYELSFQGMIQTNIASKTQKDVIRRPTFVPQWYVQQMKRGPDHQPAKTSSVSLTATFRPQEDFCFLSSKKYKLSEIHHLHPEYVRVSEHFKASMKNFKIEKIKKIENSELLDKFTWKKSQMKEEGKLLFYATSRAYVESICSNNFDSFLHETHENKYGKGIYFAKDAIYSHKNCPYDAKNVVMFVAQVLVGKFTEGNITYTSPPPQFDSCVDTRSNPSVFVIFQKDQVYPQYVIEYTEDKACVIS
notes: zinc finger antiviral protein (ZAP), long isoform ZAPL, cloned from pTRIP-TagRFP-hZAPL; also called ZAPL CY; CY; source: ZAP KO 293T cells, transfected (pcDNA3.1-3XFLAG), in lysate; not shown: 3XFLAG, N-terminal, kept
B2: FLAG-tagged ZAPS C88R (ZnF 2 mutant) (natural protein, human, UniProt Q7Z2W4-2 1-699, looked up)
chain: MADPEVCCFITKILCAHGGRMALDALLQEIALSEPQLCEVLQVAGPDRFVVLETGGEAGITRSVVATTRARVCRRKYCQRPCDNLHLRKLNLLGRCNYSQSERNLCKYSHEVLSEENFKVLKNHELSGLNKEELAVLLLQSDPFFMPEICKSYKGEGRQQICNQQPPCSRLHICDHFTRGNCRFPNCLRSHNLMDRKVLAIMREHGLNPDVVQNIQDICNSKHMQKNPPGPRAPSSHRRNMAYRARSKSRDRFFQGSQEFLASASASAERSCTPSPDQISHRASLEDAPVDDLTRKFTYLGSQDRARPPSGSSKATDLGGTSQAGTSQRFLENGSQEDLLHGNPGSTYLASNSTSAPNWKSLTSWTNDQGARRKTVFSPTLPAARSSLGSLQTPEAVTTRKGTGLLSSDYRIINGKSGTQDIQPGPLFNNNADGVATDITSTRSLNYKSTSSGHREISSPRIQDAGPASRDVQATGRIADDADPRVALVNDSLSDVTSTTSSRVDDHDSEEICLDHLCKGCPLNGSCSKVHFHLPYRWQMLIGKTWTDFEHMETIEKGYCNPGIHLCSVGSYTINFRVMSCDSFPIRRLSTPSSVTKPANSVFTTKWIWYWKNESGTWIQYGEEKDKRKNSNVDSSYLESLYQSCPRGVVPFQAGSRNYELSFQGMIQTNIASKTQKDVIRRPTFVPQWYVQQMKRGPE
notes: zinc finger antiviral protein (ZAP), short isoform ZAPS, cloned from pTRIP-TagRFP-hZAPS; source: ZAP KO 293T cells, transfected (pcDNA3.1-3XFLAG), in lysate; not shown: 3XFLAG, N-terminal, kept
B3: FLAG-tagged ZAPS C96A/Y98A (natural protein, human, UniProt Q7Z2W4-2 1-699, looked up)
chain: MADPEVCCFITKILCAHGGRMALDALLQEIALSEPQLCEVLQVAGPDRFVVLETGGEAGITRSVVATTRARVCRRKYCQRPCDNLHLCKLNLLGRANASQSERNLCKYSHEVLSEENFKVLKNHELSGLNKEELAVLLLQSDPFFMPEICKSYKGEGRQQICNQQPPCSRLHICDHFTRGNCRFPNCLRSHNLMDRKVLAIMREHGLNPDVVQNIQDICNSKHMQKNPPGPRAPSSHRRNMAYRARSKSRDRFFQGSQEFLASASASAERSCTPSPDQISHRASLEDAPVDDLTRKFTYLGSQDRARPPSGSSKATDLGGTSQAGTSQRFLENGSQEDLLHGNPGSTYLASNSTSAPNWKSLTSWTNDQGARRKTVFSPTLPAARSSLGSLQTPEAVTTRKGTGLLSSDYRIINGKSGTQDIQPGPLFNNNADGVATDITSTRSLNYKSTSSGHREISSPRIQDAGPASRDVQATGRIADDADPRVALVNDSLSDVTSTTSSRVDDHDSEEICLDHLCKGCPLNGSCSKVHFHLPYRWQMLIGKTWTDFEHMETIEKGYCNPGIHLCSVGSYTINFRVMSCDSFPIRRLSTPSSVTKPANSVFTTKWIWYWKNESGTWIQYGEEKDKRKNSNVDSSYLESLYQSCPRGVVPFQAGSRNYELSFQGMIQTNIASKTQKDVIRRPTFVPQWYVQQMKRGPE
notes: zinc finger antiviral protein (ZAP), short isoform ZAPS, cloned from pTRIP-TagRFP-hZAPS; also called ZAPS CY; CY; source: ZAP KO 293T cells, transfected (pcDNA3.1-3XFLAG), in lysate; not shown: 3XFLAG, N-terminal, kept
B4: FLAG-tagged ZAPS E148A/K151A/R170A (natural protein, human, UniProt Q7Z2W4-2 1-699, looked up)
chain: MADPEVCCFITKILCAHGGRMALDALLQEIALSEPQLCEVLQVAGPDRFVVLETGGEAGITRSVVATTRARVCRRKYCQRPCDNLHLCKLNLLGRCNYSQSERNLCKYSHEVLSEENFKVLKNHELSGLNKEELAVLLLQSDPFFMPAICASYKGEGRQQICNQQPPCSALHICDHFTRGNCRFPNCLRSHNLMDRKVLAIMREHGLNPDVVQNIQDICNSKHMQKNPPGPRAPSSHRRNMAYRARSKSRDRFFQGSQEFLASASASAERSCTPSPDQISHRASLEDAPVDDLTRKFTYLGSQDRARPPSGSSKATDLGGTSQAGTSQRFLENGSQEDLLHGNPGSTYLASNSTSAPNWKSLTSWTNDQGARRKTVFSPTLPAARSSLGSLQTPEAVTTRKGTGLLSSDYRIINGKSGTQDIQPGPLFNNNADGVATDITSTRSLNYKSTSSGHREISSPRIQDAGPASRDVQATGRIADDADPRVALVNDSLSDVTSTTSSRVDDHDSEEICLDHLCKGCPLNGSCSKVHFHLPYRWQMLIGKTWTDFEHMETIEKGYCNPGIHLCSVGSYTINFRVMSCDSFPIRRLSTPSSVTKPANSVFTTKWIWYWKNESGTWIQYGEEKDKRKNSNVDSSYLESLYQSCPRGVVPFQAGSRNYELSFQGMIQTNIASKTQKDVIRRPTFVPQWYVQQMKRGPE
notes: zinc finger antiviral protein (ZAP), short isoform ZAPS, cloned from pTRIP-TagRFP-hZAPS; also called ZAPS EKR; EKR; source: ZAP KO 293T cells, transfected (pcDNA3.1-3XFLAG), in lysate; not shown: 3XFLAG, N-terminal, kept
B5: FLAG-tagged ZAPS H176A/F184A/R189A (natural protein, human, UniProt Q7Z2W4-2 1-699, looked up)
chain: MADPEVCCFITKILCAHGGRMALDALLQEIALSEPQLCEVLQVAGPDRFVVLETGGEAGITRSVVATTRARVCRRKYCQRPCDNLHLCKLNLLGRCNYSQSERNLCKYSHEVLSEENFKVLKNHELSGLNKEELAVLLLQSDPFFMPEICKSYKGEGRQQICNQQPPCSRLHICDAFTRGNCRAPNCLASHNLMDRKVLAIMREHGLNPDVVQNIQDICNSKHMQKNPPGPRAPSSHRRNMAYRARSKSRDRFFQGSQEFLASASASAERSCTPSPDQISHRASLEDAPVDDLTRKFTYLGSQDRARPPSGSSKATDLGGTSQAGTSQRFLENGSQEDLLHGNPGSTYLASNSTSAPNWKSLTSWTNDQGARRKTVFSPTLPAARSSLGSLQTPEAVTTRKGTGLLSSDYRIINGKSGTQDIQPGPLFNNNADGVATDITSTRSLNYKSTSSGHREISSPRIQDAGPASRDVQATGRIADDADPRVALVNDSLSDVTSTTSSRVDDHDSEEICLDHLCKGCPLNGSCSKVHFHLPYRWQMLIGKTWTDFEHMETIEKGYCNPGIHLCSVGSYTINFRVMSCDSFPIRRLSTPSSVTKPANSVFTTKWIWYWKNESGTWIQYGEEKDKRKNSNVDSSYLESLYQSCPRGVVPFQAGSRNYELSFQGMIQTNIASKTQKDVIRRPTFVPQWYVQQMKRGPE
notes: zinc finger antiviral protein (ZAP), short isoform ZAPS, cloned from pTRIP-TagRFP-hZAPS; also called ZAPS HFR; HFR; source: ZAP KO 293T cells, transfected (pcDNA3.1-3XFLAG), in lysate; not shown: 3XFLAG, N-terminal, kept
B6: FLAG-tagged ZAPS K107A/Y108A (natural protein, human, UniProt Q7Z2W4-2 1-699, looked up)
chain: MADPEVCCFITKILCAHGGRMALDALLQEIALSEPQLCEVLQVAGPDRFVVLETGGEAGITRSVVATTRARVCRRKYCQRPCDNLHLCKLNLLGRCNYSQSERNLCAASHEVLSEENFKVLKNHELSGLNKEELAVLLLQSDPFFMPEICKSYKGEGRQQICNQQPPCSRLHICDHFTRGNCRFPNCLRSHNLMDRKVLAIMREHGLNPDVVQNIQDICNSKHMQKNPPGPRAPSSHRRNMAYRARSKSRDRFFQGSQEFLASASASAERSCTPSPDQISHRASLEDAPVDDLTRKFTYLGSQDRARPPSGSSKATDLGGTSQAGTSQRFLENGSQEDLLHGNPGSTYLASNSTSAPNWKSLTSWTNDQGARRKTVFSPTLPAARSSLGSLQTPEAVTTRKGTGLLSSDYRIINGKSGTQDIQPGPLFNNNADGVATDITSTRSLNYKSTSSGHREISSPRIQDAGPASRDVQATGRIADDADPRVALVNDSLSDVTSTTSSRVDDHDSEEICLDHLCKGCPLNGSCSKVHFHLPYRWQMLIGKTWTDFEHMETIEKGYCNPGIHLCSVGSYTINFRVMSCDSFPIRRLSTPSSVTKPANSVFTTKWIWYWKNESGTWIQYGEEKDKRKNSNVDSSYLESLYQSCPRGVVPFQAGSRNYELSFQGMIQTNIASKTQKDVIRRPTFVPQWYVQQMKRGPE
notes: zinc finger antiviral protein (ZAP), short isoform ZAPS, cloned from pTRIP-TagRFP-hZAPS; also called ZAPS KY; KY; source: ZAP KO 293T cells, transfected (pcDNA3.1-3XFLAG), in lysate; not shown: 3XFLAG, N-terminal, kept
B7: FLAG-tagged ZAPS V72A/Y108A/F144A (natural protein, human, UniProt Q7Z2W4-2 1-699, looked up)
chain: MADPEVCCFITKILCAHGGRMALDALLQEIALSEPQLCEVLQVAGPDRFVVLETGGEAGITRSVVATTRARACRRKYCQRPCDNLHLCKLNLLGRCNYSQSERNLCKASHEVLSEENFKVLKNHELSGLNKEELAVLLLQSDPAFMPEICKSYKGEGRQQICNQQPPCSRLHICDHFTRGNCRFPNCLRSHNLMDRKVLAIMREHGLNPDVVQNIQDICNSKHMQKNPPGPRAPSSHRRNMAYRARSKSRDRFFQGSQEFLASASASAERSCTPSPDQISHRASLEDAPVDDLTRKFTYLGSQDRARPPSGSSKATDLGGTSQAGTSQRFLENGSQEDLLHGNPGSTYLASNSTSAPNWKSLTSWTNDQGARRKTVFSPTLPAARSSLGSLQTPEAVTTRKGTGLLSSDYRIINGKSGTQDIQPGPLFNNNADGVATDITSTRSLNYKSTSSGHREISSPRIQDAGPASRDVQATGRIADDADPRVALVNDSLSDVTSTTSSRVDDHDSEEICLDHLCKGCPLNGSCSKVHFHLPYRWQMLIGKTWTDFEHMETIEKGYCNPGIHLCSVGSYTINFRVMSCDSFPIRRLSTPSSVTKPANSVFTTKWIWYWKNESGTWIQYGEEKDKRKNSNVDSSYLESLYQSCPRGVVPFQAGSRNYELSFQGMIQTNIASKTQKDVIRRPTFVPQWYVQQMKRGPE
notes: zinc finger antiviral protein (ZAP), short isoform ZAPS, cloned from pTRIP-TagRFP-hZAPS; also called ZAPS VYF; VYF; source: ZAP KO 293T cells, transfected (pcDNA3.1-3XFLAG), in lysate; not shown: 3XFLAG, N-terminal, kept

Biological target: T1, myc-tagged TRIM25 WT (tripartite motif-containing protein 25) (UniProt Q14258 1-630)
T1 construct: tripartite motif-containing protein 25 (TRIM25), ubiquitin E3 ligase; full-length TRIM25 provided by J. U. Jung (Gack et al., 2007); source: ZAP KO 293T or TRIM25 KO 293T cells, transfected (pcDNA3.1-myc), in lysate; not shown: myc, N-terminal, kept
Experiment: co-IP; myc IP (anti-myc beads) of myc-TRIM25 WT from lysates of ZAP KO 293T cells co-transfected with FLAG-ZAPS or FLAG-ZAPL WT or mutants; FLAG-ZAP detected by immunoblot; FLAG IP buffer (100 mM Tris-HCl 8.0, 150 mM NaCl, 5 mM EDTA, 1 mM DTT, 5% glycerol, 0.1% NP-40), 4°C, 45 min; FLAG IP band divided by myc IP band (ImageJ)
Conditions: partners not purified

T1 sequence (Q14258 whole entry): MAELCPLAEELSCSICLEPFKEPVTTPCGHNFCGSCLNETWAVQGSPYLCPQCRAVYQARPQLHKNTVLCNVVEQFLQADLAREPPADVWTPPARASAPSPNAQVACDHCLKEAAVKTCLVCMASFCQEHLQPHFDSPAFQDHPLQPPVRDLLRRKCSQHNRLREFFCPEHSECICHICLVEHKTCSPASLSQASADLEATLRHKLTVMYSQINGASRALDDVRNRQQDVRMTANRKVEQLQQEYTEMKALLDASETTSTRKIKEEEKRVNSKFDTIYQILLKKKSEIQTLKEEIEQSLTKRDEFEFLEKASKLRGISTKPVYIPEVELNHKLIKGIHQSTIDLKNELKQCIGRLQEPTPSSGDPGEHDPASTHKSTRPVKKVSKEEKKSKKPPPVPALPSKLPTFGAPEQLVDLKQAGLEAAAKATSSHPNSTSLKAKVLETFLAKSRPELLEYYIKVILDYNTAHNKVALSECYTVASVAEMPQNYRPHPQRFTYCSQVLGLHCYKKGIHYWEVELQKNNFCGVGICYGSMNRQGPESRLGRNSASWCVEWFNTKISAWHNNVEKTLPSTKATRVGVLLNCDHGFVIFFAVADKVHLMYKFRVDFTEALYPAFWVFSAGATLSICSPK

First: B1
Second: B2
The “ZAP-TRIM25 interaction (co-IP, FLAG-ZAP band over myc-TRIM25 band, ImageJ)” value of the first is lower: 0.329 for the first, 0.45 for the second.

First: B3
Second: B4
The “ZAP-TRIM25 interaction (co-IP, FLAG-ZAP band over myc-TRIM25 band, ImageJ)” value of the first is higher: 0.55 for the first, 0.189 for the second.

First: B5
Second: B6
The “ZAP-TRIM25 interaction (co-IP, FLAG-ZAP band over myc-TRIM25 band, ImageJ)” value of the first is lower: 0.205 for the first, 0.33 for the second.

In the case of B7, the “ZAP-TRIM25 interaction (co-IP, FLAG-ZAP band over myc-TRIM25 band, ImageJ)” value is reported as 0.792.
